According to patent publication US20110251375A1:
Where two headings read alike, the source gives them in different places.

Legend:
hen egg lysozyme (hen) [1] = biological target: hen egg lysozyme (hen) (UniProt P00698); test: ELISA, no periplasmic extract; anti-His4 and anti-mouse HRP on HEL coated at 6.25 µg/ml
hen egg lysozyme (hen) [2] = biological target: hen egg lysozyme (hen) (UniProt P00698); test: ELISA, no periplasmic extract; anti-His4 and anti-mouse HRP on HEL coated at 100 µg/ml
hen egg lysozyme (hen) [3] = biological target: hen egg lysozyme (hen) (UniProt P00698); test: ELISA, no periplasmic extract; anti-His4 and anti-mouse HRP on HEL coated at 50 µg/ml
hen egg lysozyme (hen) [4] = biological target: hen egg lysozyme (hen) (UniProt P00698); test: ELISA, no periplasmic extract; anti-His4 and anti-mouse HRP on HEL coated at 200 µg/ml
hen egg lysozyme (hen) [5] = biological target: hen egg lysozyme (hen) (UniProt P00698); test: ELISA, no periplasmic extract; anti-His4 and anti-mouse HRP on HEL coated at 0.39 µg/ml
hen egg lysozyme (hen) [6] = biological target: hen egg lysozyme (hen) (UniProt P00698); test: ELISA, no periplasmic extract; anti-His-(4) and goat anti-mouse IgG-HRP alone on coated HEL (20 µg/ml); negative control, no-antigen well 0.018
hen egg lysozyme (hen) [7] = biological target: hen egg lysozyme (hen) (UniProt P00698); test: ELISA, no periplasmic extract; anti-His4 and anti-mouse HRP on HEL coated at 1.55 µg/ml
hen egg lysozyme (hen) [8] = biological target: hen egg lysozyme (hen) (UniProt P00698); test: ELISA, no periplasmic extract; anti-His4 and anti-mouse HRP on coated HEL (100 µg/ml), 12 parallel readings
hen egg lysozyme (hen) [9] = biological target: hen egg lysozyme (hen) (UniProt P00698); test: ELISA, no periplasmic extract; anti-His4 and anti-mouse HRP on HEL coated at 25 µg/ml
hen egg lysozyme (hen) [10] = biological target: hen egg lysozyme (hen) (UniProt P00698); test: ELISA, no periplasmic extract; anti-His4 and anti-mouse HRP on HEL coated at 12.5 µg/ml
hen egg lysozyme (hen) [11] = biological target: hen egg lysozyme (hen) (UniProt P00698); test: ELISA, no periplasmic extract; anti-His4 and anti-mouse HRP on coated HEL (100 µg/ml), 12 parallel readings; remark: listed apart in the source
[12] = biological target: recombinant human Erythropoietin (rhEPO) (human) (UniProt P01588); test: ELISA, no periplasmic extract; anti-His-(4) and goat anti-mouse IgG-AP alone on coated rhEPO; negative control, no-antigen well 0.090
hen egg lysozyme (hen) [13] = biological target: hen egg lysozyme (hen) (UniProt P00698); test: ELISA, no periplasmic extract; anti-His4 and anti-mouse HRP on HEL coated at 3.125 µg/ml

Chain of UniProt P00698 (P00698 19-147 limits assumed): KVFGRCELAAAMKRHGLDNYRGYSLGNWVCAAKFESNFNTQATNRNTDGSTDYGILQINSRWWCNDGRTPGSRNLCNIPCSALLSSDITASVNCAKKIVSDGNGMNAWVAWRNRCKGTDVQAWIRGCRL
Chain of UniProt P01588 (P01588 28-192 limits assumed): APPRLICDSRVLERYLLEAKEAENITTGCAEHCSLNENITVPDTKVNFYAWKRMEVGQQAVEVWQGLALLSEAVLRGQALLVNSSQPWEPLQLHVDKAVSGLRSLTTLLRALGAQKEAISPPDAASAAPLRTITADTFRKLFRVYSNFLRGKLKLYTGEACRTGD

ELISA absorbance (no periplasmic extract) (hen egg lysozyme (hen) [1]): 0.023 A 492/620
ELISA absorbance (no periplasmic extract) (hen egg lysozyme (hen) [2]): 0.36 A 492/620
ELISA absorbance (no periplasmic extract) (hen egg lysozyme (hen) [3]): 0.165 A 492/620
ELISA absorbance (no periplasmic extract) (hen egg lysozyme (hen) [4]): 0.449 A 492/620
ELISA absorbance (no periplasmic extract) (hen egg lysozyme (hen) [5]): 0.007 A 492/620
absorbance, no periplasmic extract (control) (hen egg lysozyme (hen) [6]): 0.11 A 492/620 nm
ELISA absorbance (no periplasmic extract) (hen egg lysozyme (hen) [7]): 0.013 A 492/620
A 492/620 background (antigen alone) (hen egg lysozyme (hen) [8]): 0.133 A 492/620
ELISA absorbance (no periplasmic extract) (hen egg lysozyme (hen) [9]): 0.072 A 492/620
ELISA absorbance (no periplasmic extract) (hen egg lysozyme (hen) [10]): 0.038 A 492/620
A 492/620 background (antigen alone) (hen egg lysozyme (hen) [11]): 0.176 A 492/620
absorbance, no periplasmic extract (control) [12]: 0.095 A 405/620 nm
ELISA absorbance (no periplasmic extract) (hen egg lysozyme (hen) [13]): 0.017 A 492/620
Substance: anti-His4 antibody (Qiagen)
